One block for each molecule: values may come before it.
How the values were obtained:
[1] = target: T1, TmMtaD (SAH deaminase from Thermotoga maritima) (Thermotoga maritima, UniProt Q9X034); assay: GDH-coupled NADH oxidation at […] nm; format: biochemical; conditions: 50 mM potassium phosphate pH 7.5, 50 mM KCl, 20 mM MgCl2
T1 sequence (Q9X034 1-406): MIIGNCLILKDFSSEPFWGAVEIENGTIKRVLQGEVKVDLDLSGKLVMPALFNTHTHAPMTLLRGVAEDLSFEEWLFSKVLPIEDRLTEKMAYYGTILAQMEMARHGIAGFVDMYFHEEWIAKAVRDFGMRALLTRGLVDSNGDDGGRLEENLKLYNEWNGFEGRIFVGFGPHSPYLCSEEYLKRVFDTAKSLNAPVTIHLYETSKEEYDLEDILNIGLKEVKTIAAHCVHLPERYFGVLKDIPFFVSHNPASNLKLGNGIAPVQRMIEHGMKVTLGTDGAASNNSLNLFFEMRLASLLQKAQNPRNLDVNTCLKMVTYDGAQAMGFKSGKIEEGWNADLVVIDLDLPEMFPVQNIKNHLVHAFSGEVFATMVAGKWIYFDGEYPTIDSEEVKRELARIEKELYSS

[2] = system: NCCc1ccc(O)c(O)c1; assay: purified protein; conditions: 200 μM SAM, 50 mM HEPES pH 7.5, 100 mM KCl, 20 mM MgCl2, 25 °C
[3] = substrate: NCCc1ccc(O)c(O)c1; assay: purified protein; format: biochemical, Rattus norvegicus; conditions: 200 μM SAM, 50 mM HEPES pH 7.5, 100 mM KCl, 20 mM MgCl2, 25 °C

Km [1]: 180 ± 60 µM
Molecule: Nc1ncnc2c1ncn2[C@@H]1O[C@H](CSCC[C@H](N)C(=O)O)[C@@H](O)[C@H]1O [SAH]

Molecule: MxSafC (SafC O-MT from Myxococcus xanthus) (Myxococcus xanthus)
Km [2]: 270 ± 14 µM
kcat [2]: 0.039 ± 0.001 s⁻¹

B1: RnCOMT (catechol-O-MT from Rattus norvegicus) (Rattus norvegicus) (protein)
chain: MGDTKEQRILRYVQQNAKPGDPQSVLEAIDTYCTQKEWAMNVGDAKGQIMDAVIREYSPSLVLELGAYCGYSAVRMARLLQPGARLLTMEMNPDYAAITQQMLNFAGLQDKVTILNGASQDLIPQLKKKYDVDTLDMVFLDHWKDRYLPDTLLLEKCGLLRKGTVLLADNVIVPGTPDFLAYVRGSSSFECTHYSSYLEYMKVVDGLEKAIYQGPSSPDKS
Km [3]: 144 ± 15 µM
kcat [3]: 0.072 ± 0.002 s⁻¹

— article PMC9542197 (Chembiochem, 2022)
